Columns and labels:
FoxP1 RBR-FKH;NFAT1 DBD = target: T1, FoxP1 RBR-FKH;NFAT1 DBD (Mus musculus;Mus musculus?, UniProt P58462;Q60591 427-579;394-680, |); experiment: EMSA; monomer; Pull-down: 20 mM Tris-HCl pH 7.5, 100 mM NaCl, 1.5 mM MgCl2, room temperature, 0.4 uM MBP protein, 0.1 uM DNA (NFAT 0.2 uM); EMSA: 20 mM HEPES pH 7.5, 150 mM NaCl, 1.5 mM MgCl2, 2 mM DTT, 4 C, 0.2 uM DNA (RBR-FKH 0.8 uM, NFAT 0.4 uM); details: protein: recombinant;recombinant; tags: none (His6-NusA cleaved);none (His6-NusA cleaved); copies: 1;1; blunt
T1 sequence 1: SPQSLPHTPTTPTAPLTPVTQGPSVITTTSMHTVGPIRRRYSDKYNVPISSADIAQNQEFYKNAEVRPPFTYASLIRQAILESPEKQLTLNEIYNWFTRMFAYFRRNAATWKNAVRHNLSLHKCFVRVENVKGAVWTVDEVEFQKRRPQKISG
T1 sequence 2: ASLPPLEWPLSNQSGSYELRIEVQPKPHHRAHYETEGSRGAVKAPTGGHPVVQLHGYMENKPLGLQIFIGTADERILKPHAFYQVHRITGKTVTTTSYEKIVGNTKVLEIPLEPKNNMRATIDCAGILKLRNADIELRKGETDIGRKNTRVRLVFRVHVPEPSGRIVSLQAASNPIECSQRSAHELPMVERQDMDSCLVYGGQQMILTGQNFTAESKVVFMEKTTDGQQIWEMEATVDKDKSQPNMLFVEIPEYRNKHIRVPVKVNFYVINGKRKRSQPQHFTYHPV

[1] = target: T2, FoxP1RBR-FoxP3FKH;NFAT1 DBD (Mus musculus;Mus musculus?, UniProt P58462;Q60591 427-492+Q99JB6:337-423;394-680, internal_change|); experiment: as above; details: protein: recombinant;recombinant; tags: none (His6-NusA cleaved);none (His6-NusA cleaved); copies: 1;1; blunt
T2 sequence 1: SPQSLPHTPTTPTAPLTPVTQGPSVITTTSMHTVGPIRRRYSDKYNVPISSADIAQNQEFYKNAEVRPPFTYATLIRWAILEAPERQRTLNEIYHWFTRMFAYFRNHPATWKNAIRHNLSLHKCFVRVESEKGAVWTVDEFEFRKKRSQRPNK
T2 sequence 2: T1 sequence 2

[2] = target: T3, FoxP3RBR-FoxP1FKH;NFAT1 DBD (Mus musculus;Mus musculus?, UniProt Q99JB6;Q60591 284-336+P58462:493-579;394-680, internal_change|); experiment: as above; details: protein: recombinant;recombinant; tags: none (His6-NusA cleaved);none (His6-NusA cleaved); chain copies: 2;1; blunt
T3 sequence 1: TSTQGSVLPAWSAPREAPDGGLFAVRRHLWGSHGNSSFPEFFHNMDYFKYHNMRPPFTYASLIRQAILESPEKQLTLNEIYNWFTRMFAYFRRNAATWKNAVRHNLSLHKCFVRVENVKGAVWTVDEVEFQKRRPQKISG
T3 sequence 2: T1 sequence 2

FoxP3 RBR-FKH;NFAT1 DBD [3] = target: T4, FoxP3 RBR-FKH;NFAT1 DBD (Mus musculus;Mus musculus?, UniProt Q99JB6;Q60591 284-423;394-680, |); experiment: as above; details: protein: recombinant;recombinant; tags: none (His6-NusA cleaved);none (His6-NusA cleaved); copies: 1;1; blunt
T4 sequence 1: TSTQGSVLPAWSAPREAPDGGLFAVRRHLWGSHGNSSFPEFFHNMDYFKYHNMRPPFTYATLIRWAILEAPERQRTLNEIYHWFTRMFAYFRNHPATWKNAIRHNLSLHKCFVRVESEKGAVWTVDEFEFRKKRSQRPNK
T4 sequence 2: T1 sequence 2

MBP-FoxP3dN [4] = target: T5, MBP-FoxP3dN (Mus musculus, UniProt Q99JB6 188-423); experiment: pull-down; comparable to IR-FKHM; Pull-down: 20 mM Tris-HCl pH 7.5, 100 mM NaCl, 1.5 mM MgCl2, room temperature, 0.4 uM MBP protein, 0.1 uM DNA (NFAT 0.2 uM); EMSA: 20 mM HEPES pH 7.5, 150 mM NaCl, 1.5 mM MgCl2, 2 mM DTT, 4 C, 0.2 uM DNA (RBR-FKH 0.8 uM, NFAT 0.4 uM); details: protein: recombinant; tags: His6-MBP; chain copies: 2; blunt
T5 sequence: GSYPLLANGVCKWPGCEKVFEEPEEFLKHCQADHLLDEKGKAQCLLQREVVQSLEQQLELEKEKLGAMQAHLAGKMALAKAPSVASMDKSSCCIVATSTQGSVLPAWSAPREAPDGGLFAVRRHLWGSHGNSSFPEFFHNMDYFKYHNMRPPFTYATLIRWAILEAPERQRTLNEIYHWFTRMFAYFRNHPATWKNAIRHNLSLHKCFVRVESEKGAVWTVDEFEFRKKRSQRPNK
Outline: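 0.4 µM MBP-tagged mouse FoxP3 fragment (plus 0.2 µM NFAT fragment where included) was mixed with 0.1 µM duplex DNA in Tris buffer with NaCl and MgCl2 at room temperature. Complexes were captured on amylose resin, and proteinase K-released DNA was run on 10% TBE gels stained with SYBR Gold. In a gel-shift arm, 0.2 µM DNA and protein were held 10 min at 4 °C in HEPES buffer, then run on native gels. Binding was judged qualitatively from gels.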

MBP-FoxP3dN;NFAT1 DBD [5] = target: T6, MBP-FoxP3dN;NFAT1 DBD (Mus musculus;Mus musculus?, UniProt Q99JB6;Q60591 188-423;394-680, |); experiment: pull-down; optimal NFAT cooperativity; Pull-down: 20 mM Tris-HCl pH 7.5, 100 mM NaCl, 1.5 mM MgCl2, room temperature, 0.4 uM MBP protein, 0.1 uM DNA (NFAT 0.2 uM); EMSA: 20 mM HEPES pH 7.5, 150 mM NaCl, 1.5 mM MgCl2, 2 mM DTT, 4 C, 0.2 uM DNA (RBR-FKH 0.8 uM, NFAT 0.4 uM); details: protein: recombinant;recombinant; tags: His6-MBP;none (His6-NusA cleaved); chain copies: 2;1; blunt
T6 sequence 1: T5 sequence
T6 sequence 2: T1 sequence 2

[6] = target: T3, FoxP3RBR-FoxP1FKH;NFAT1 DBD; experiment: EMSA; dimer; Pull-down: 20 mM Tris-HCl pH 7.5, 100 mM NaCl, 1.5 mM MgCl2, room temperature, 0.4 uM MBP protein, 0.1 uM DNA (NFAT 0.2 uM); EMSA: 20 mM HEPES pH 7.5, 150 mM NaCl, 1.5 mM MgCl2, 2 mM DTT, 4 C, 0.2 uM DNA (RBR-FKH 0.8 uM, NFAT 0.4 uM); details: protein: recombinant;recombinant; tags: none (His6-NusA cleaved);none (His6-NusA cleaved); chain copies: 2;1; blunt
FoxP3 RBR-FKH;NFAT1 DBD [7] = target: T4, FoxP3 RBR-FKH;NFAT1 DBD; experiment: as above; details: protein: recombinant;recombinant; tags: none (His6-NusA cleaved);none (His6-NusA cleaved); copies: 1;1; blunt
MBP-FoxP3dN;NFAT1 DBD [8] = target: T6, MBP-FoxP3dN;NFAT1 DBD; experiment: pull-down; NFAT enhances binding; Pull-down: 20 mM Tris-HCl pH 7.5, 100 mM NaCl, 1.5 mM MgCl2, room temperature, 0.4 uM MBP protein, 0.1 uM DNA (NFAT 0.2 uM); EMSA: 20 mM HEPES pH 7.5, 150 mM NaCl, 1.5 mM MgCl2, 2 mM DTT, 4 C, 0.2 uM DNA (RBR-FKH 0.8 uM, NFAT 0.4 uM); details: protein: recombinant;recombinant; tags: His6-MBP;none (His6-NusA cleaved); chain copies: 2;1; blunt
MBP-FoxP3dN [9] = target: T5, MBP-FoxP3dN; experiment: pull-down; Pull-down: 20 mM Tris-HCl pH 7.5, 100 mM NaCl, 1.5 mM MgCl2, room temperature, 0.4 uM MBP protein, 0.1 uM DNA (NFAT 0.2 uM); EMSA: 20 mM HEPES pH 7.5, 150 mM NaCl, 1.5 mM MgCl2, 2 mM DTT, 4 C, 0.2 uM DNA (RBR-FKH 0.8 uM, NFAT 0.4 uM); details: protein: recombinant; tags: His6-MBP; chain copies: 2; blunt

B1: DNA2 (NFAT sFKHM) (dsDNA)
DNA 1: TTAGGAAAATTTGTTTACTCCTCGCGGCAAA
DNA 2: TTTGCCGCGAGGAGTAAACAAATTTTCCTAA
FoxP1 RBR-FKH;NFAT1 DBD
  binding result: binds
[1]
  binding result: binds
[2]
  binding result: binds
FoxP3 RBR-FKH;NFAT1 DBD [3]
  binding result: binds

B2: DNA 3 (Fig S1F) (dsDNA)
DNA 1: AATTTTGTGCATTCGAGTAAACAAATTT
DNA 2: AAATTTGTTTACTCGAATGCACAAAATT
MBP-FoxP3dN [4]
  binding result: binds

B3: Var7 (dsDNA)
DNA 1: TTAGGAAATTTGTGCATTCGAGTAAACAAATTT
DNA 2: AAATTTGTTTACTCGAATGCACAAATTTCCTAA
MBP-FoxP3dN;NFAT1 DBD [5]
  binding result: binds

B4: DNA 1 (Fig S1F) (dsDNA)
DNA 1: AATTTGCGCATCTCGAGTAAACAAATTT
DNA 2: AAATTTGTTTACTCGAGATGCGCAAATT
MBP-FoxP3dN [4]
  binding result: binds

B5: DNA 6 (Fig S1F) (dsDNA)
DNA 1: AATTTGCGCATTTCGAGTAAACAAATTT
DNA 2: AAATTTGTTTACTCGAAATGCGCAAATT
MBP-FoxP3dN [4]
  binding result: binds

B6: DNA 7 (Fig S1F) (dsDNA)
DNA 1: AATTTGCCGCATTCGAGTAAACAAATTT
DNA 2: AAATTTGTTTACTCGAATGCGGCAAATT
MBP-FoxP3dN [4]
  binding result: binds

B7: DNA1 (NFAT IR-FKHM) (dsDNA)
DNA 1: TTAGGAAAATTTGTTTACTCGAGTAAACAAA
DNA 2: TTTGTTTACTCGAGTAAACAAATTTTCCTAA
FoxP1 RBR-FKH;NFAT1 DBD
  binding result: binds
[1]
  binding result: binds
[6]
  binding result: binds
FoxP3 RBR-FKH;NFAT1 DBD [7]
  binding result: binds

B8: DNA 8 (Fig S1F) (dsDNA)
DNA 1: AATTTGTGTTGTTCGAGTAAACAAATTT
DNA 2: AAATTTGTTTACTCGAACAACACAAATT
MBP-FoxP3dN [4]
  binding result: binds

B9: DNA 10 (Fig S1F) (dsDNA)
DNA 1: AATTTGTTGCATTCGAGTAAACAAATTT
DNA 2: AAATTTGTTTACTCGAATGCAACAAATT
MBP-FoxP3dN [4]
  binding result: binds

B10: DNA 5 (Fig S1F) (dsDNA)
DNA 1: AATTTGTGTTTATCGAGTAAACAAATTT
DNA 2: AAATTTGTTTACTCGATAAACACAAATT
MBP-FoxP3dN [4]
  binding result: binds

B11: Var2 (dsDNA)
DNA 1: TTAGGAAATTTGCGCATCTCGAGTAAACAAATTT
DNA 2: AAATTTGTTTACTCGAGATGCGCAAATTTCCTAA
MBP-FoxP3dN;NFAT1 DBD [8]
  binding result: binds

B12: DNA 4 (Fig S1F) (dsDNA)
DNA 1: AATTTTGTTTATTCGAGTAAACAAATTT
DNA 2: AAATTTGTTTACTCGAATAAACAAAATT
MBP-FoxP3dN [4]
  binding result: binds

B13: IR-FKHM (Fig 1C) (dsDNA)
DNA 1: TAGGAAAATTTGTTTACTCGAGTAAACATC
DNA 2: GATGTTTACTCGAGTAAACAAATTTTCCTA
MBP-FoxP3dN [9]
  binding result: binds

B14: DNA 2 (Fig S1F) (dsDNA)
DNA 1: AATTTTGTTGTGTCGAGTAAACAAATTT
DNA 2: AAATTTGTTTACTCGACACAACAAAATT
MBP-FoxP3dN [4]
  binding result: binds

B15: DNA 9 (Fig S1F) (dsDNA)
DNA 1: AATTTGTGCATCTCGAGTAAACAAATTT
DNA 2: AAATTTGTTTACTCGAGATGCACAAATT
MBP-FoxP3dN [4]
  binding result: binds

Reference: paper PMC12820563, “FoxP3 forms a head-to-head dimer in vivo and stabilizes its multimerization on adjacent microsatellites”
